Key:
[1] = molecular target: N2β1α1C1, recombinant purified (the MxDnaK1 chimera with the MxDnaK2 NBD) (Myxococcus xanthus DK1622); test: SDS-PAGE of the purified protein (monomer and dimer bands); purified MxDnaKs and chimeras on SDS-PAGE, without DTT treatment; monomer (1×) and dimer (2×) bands
[2] = molecular target: the molecule itself; test: as above

Molecule	oligomer state on SDS-PAGE (subunits per band) [1]	stoichiometry N [2]
N2β1α1C1, recombinant purified (the MxDnaK1 chimera with the MxDnaK2 NBD)	2	
His6-MxDnaK2 (natural protein, Myxococcus xanthus DK1622, UniProt P95334 1-607, looked up, MxDnaK2 (MXAN_6671) of Myxococcus xanthus DK1622; the gene was amplified from genomic DNA and cloned into pET28a; His6-MxDnaK2 printed as 65.3 kDa; also called MxDnaK2, recombinant purified; source: E. coli BL21 (DE3), purified (Ni-NTA); not shown: His6, N-terminal, kept) MGKVIGIDLGTTNSCVAVMEGGEPVVIPNSEGSRTTPSMVGFTDSGERLVGQIAKRQAITNPENTVFAAKRLIGRKFDSPEGKKAIGVSPFKVASSPNGDAWVEIRGKGYSPPEVSAIVLMKMKQTAEDYLGEQVSEAVITVPAYFNDSQRQATKDAGRIAGLSVLRIINEPTAAALAYGLDKVQDGGTERIAVYDLGGGTFDISILELNAGVFEVKSTNGDTFLGGEDFDQRLIDYLAKRFAESNNGLDLRKDRMALQRLKEAAERAKHELSSAPETEVNLPFITADASGPKHLTETVDRATFEALVTDLIDRTIEPCRIALKDAGIPAQQINQVLLVGGMTRMPRVQQKVKEFFGREPHKGINPDEVVAVGAAIQGGVLKGEVKDVLLLDVTPLSLGVETAGGVFTKIIDKNTTIPCKKSQVFSTAVDNQPLVSVHVLQGEREMAADNKTLARFELVGIPPAPRGVPQIEVSFDIDANGIVHVSAKDLGTGKVQQVRVVSNSGLSEAEIQAMISDAQSHASDDKKKKELAELRNNADGLIYTTEKSLEEYASLLSEKDREEIKADLERLKEVLNTSDAAVLKESFQRLEGSAYRIADAIYTGQAS		2
